Data from patent US20240009242A1 (STARKAGE THERAPEUTICS, published 2024).
Ends that are not written are not given here.

Key:
[1] = target: T1, human DEP1 on the surface of fibroblasts (human) (UniProt Q12913); experiment: flow cytometry on COPD human lung fibroblasts; 0.5 µg per test; anti-6xHis tag PE secondary
T1 sequence: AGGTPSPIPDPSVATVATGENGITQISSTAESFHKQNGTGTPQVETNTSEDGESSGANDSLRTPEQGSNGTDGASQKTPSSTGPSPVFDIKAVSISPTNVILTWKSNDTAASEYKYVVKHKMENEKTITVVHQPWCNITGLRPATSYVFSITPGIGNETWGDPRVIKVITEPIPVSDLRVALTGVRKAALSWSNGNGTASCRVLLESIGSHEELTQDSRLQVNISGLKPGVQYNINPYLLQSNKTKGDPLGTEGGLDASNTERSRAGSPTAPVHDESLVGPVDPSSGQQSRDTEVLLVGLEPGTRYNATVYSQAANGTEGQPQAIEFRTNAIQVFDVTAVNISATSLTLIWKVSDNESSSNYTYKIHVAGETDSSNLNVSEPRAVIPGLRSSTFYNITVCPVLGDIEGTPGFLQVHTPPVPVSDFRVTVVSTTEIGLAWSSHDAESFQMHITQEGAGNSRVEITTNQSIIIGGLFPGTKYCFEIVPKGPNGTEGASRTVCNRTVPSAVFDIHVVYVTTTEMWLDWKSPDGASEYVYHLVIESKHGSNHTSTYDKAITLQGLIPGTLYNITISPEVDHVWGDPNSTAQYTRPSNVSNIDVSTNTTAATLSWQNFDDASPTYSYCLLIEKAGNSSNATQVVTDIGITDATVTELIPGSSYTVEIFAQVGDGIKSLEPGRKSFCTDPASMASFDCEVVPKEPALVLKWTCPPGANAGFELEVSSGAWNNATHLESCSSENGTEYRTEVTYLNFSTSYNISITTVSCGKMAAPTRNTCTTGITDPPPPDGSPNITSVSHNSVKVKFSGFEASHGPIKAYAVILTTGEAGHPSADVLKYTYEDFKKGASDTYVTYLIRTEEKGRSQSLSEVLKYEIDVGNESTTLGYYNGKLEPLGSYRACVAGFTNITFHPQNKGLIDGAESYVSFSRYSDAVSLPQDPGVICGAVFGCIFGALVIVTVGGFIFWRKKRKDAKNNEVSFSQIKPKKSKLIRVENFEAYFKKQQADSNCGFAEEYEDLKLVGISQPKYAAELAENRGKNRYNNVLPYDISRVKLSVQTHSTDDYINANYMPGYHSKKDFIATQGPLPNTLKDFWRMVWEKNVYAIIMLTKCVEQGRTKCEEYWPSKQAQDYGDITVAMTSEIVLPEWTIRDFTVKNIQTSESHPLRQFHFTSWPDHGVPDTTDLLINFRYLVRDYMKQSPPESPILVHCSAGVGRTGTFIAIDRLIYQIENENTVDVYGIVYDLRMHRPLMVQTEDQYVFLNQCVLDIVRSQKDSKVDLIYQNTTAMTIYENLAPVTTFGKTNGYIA

[2] = target: T1, human DEP1 on the surface of fibroblasts (human); experiment: flow cytometry on IPF human lung fibroblasts; 0.5 µg per test; anti-6xHis tag PE secondary
[3] = target: T1, human DEP1 on the surface of fibroblasts (human); experiment: flow cytometry on untreated GM21808 fibroblasts; 0.5 µg per test; anti-6xHis tag PE secondary
[4] = target: T1, human DEP1 on the surface of fibroblasts (human); experiment: flow cytometry on NHLF (normal human lung fibroblasts); 0.5 µg per test; anti-6xHis tag PE secondary
[5] = target: T1, human DEP1 on the surface of fibroblasts (human); experiment: flow cytometry on Wi-38 fibroblasts (PDL<20); 0.5 µg per test; anti-6xHis tag PE secondary
[6] = target: T1, human DEP1 on the surface of fibroblasts (human); experiment: flow cytometry on GM21808 fibroblasts treated with etoposide; 0.5 µg per test; anti-6xHis tag PE secondary
[7] = target: human DPP4 on the surface of fibroblasts (human) (UniProt P27487); experiment: flow cytometry on COPD human lung fibroblasts; 0.5 µg per test; anti-6xHis tag PE secondary
human DPP4 on the surface of fibroblasts (human), sequence (P27487 whole entry): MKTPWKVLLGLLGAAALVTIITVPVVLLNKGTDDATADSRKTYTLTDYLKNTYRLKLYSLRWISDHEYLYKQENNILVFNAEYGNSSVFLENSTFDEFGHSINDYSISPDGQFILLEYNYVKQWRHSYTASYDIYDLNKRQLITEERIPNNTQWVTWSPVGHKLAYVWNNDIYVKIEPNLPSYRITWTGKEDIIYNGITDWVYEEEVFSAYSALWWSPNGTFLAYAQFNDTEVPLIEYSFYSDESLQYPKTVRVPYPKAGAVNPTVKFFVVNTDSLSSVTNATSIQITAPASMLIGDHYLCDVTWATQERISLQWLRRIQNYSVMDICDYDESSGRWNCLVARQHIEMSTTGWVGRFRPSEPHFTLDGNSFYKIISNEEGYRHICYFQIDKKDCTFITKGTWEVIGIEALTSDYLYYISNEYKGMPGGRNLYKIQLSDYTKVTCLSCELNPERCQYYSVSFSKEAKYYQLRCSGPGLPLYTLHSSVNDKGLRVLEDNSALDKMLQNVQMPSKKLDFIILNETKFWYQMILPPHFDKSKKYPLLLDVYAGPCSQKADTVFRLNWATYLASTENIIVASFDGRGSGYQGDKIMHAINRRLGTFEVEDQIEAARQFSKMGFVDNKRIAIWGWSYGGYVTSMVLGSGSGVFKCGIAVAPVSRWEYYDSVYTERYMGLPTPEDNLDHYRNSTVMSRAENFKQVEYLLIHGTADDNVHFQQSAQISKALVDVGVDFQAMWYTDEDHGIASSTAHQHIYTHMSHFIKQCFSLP

[8] = target: human DPP4 on the surface of fibroblasts (human) (UniProt P27487); experiment: flow cytometry on IPF human lung fibroblasts; 0.5 µg per test; anti-6xHis tag PE secondary
[9] = target: human DPP4 on the surface of fibroblasts (human) (UniProt P27487); experiment: flow cytometry on untreated GM21808 fibroblasts; 0.5 µg per test; anti-6xHis tag PE secondary
[10] = target: human DPP4 on the surface of fibroblasts (human) (UniProt P27487); experiment: flow cytometry on NHLF (normal human lung fibroblasts); 0.5 µg per test; anti-6xHis tag PE secondary
[11] = target: human DPP4 on the surface of fibroblasts (human) (UniProt P27487); experiment: flow cytometry on Wi-38 fibroblasts (PDL<20); 0.5 µg per test; anti-6xHis tag PE secondary
[12] = target: human DPP4 on the surface of fibroblasts (human) (UniProt P27487); experiment: flow cytometry on GM21808 fibroblasts treated with etoposide; 0.5 µg per test; anti-6xHis tag PE secondary
hDEP1 Peptide #4 = target: T2, hDEP1 Peptide #4 (human, also: conjugated to BSA); experiment: ELISA, soluble scFv produced in microtiter plate
T2 construct: also called hDEP1 Peptide #4/BSA
T2 peptide: ADVLKYTYEDFKKGASDT
Procedure: 96 isolated clones from the second, third and fourth rounds of panning were hand-picked and used to produce the respective soluble scFv in microtiter plate. Each clone was then tested in ELISA against hDEP1 Peptide #4/BSA.

B1: 5738-13-R2A-H4 (scFv, part only; not given: linker and His-Flag tag, V domains shown, not shown: another chain or arm of the molecule; small tags and cut ends)
VH: EVKLVESGGGLVQPGRSLKLSCAASGFTFSNYYMAWVRQAPTKGLEWVAYITNGFGSTYYRDSVKGRFTISRDNAKSTLYLQMDSLRSEDTATYYCSTVPLGAFVSWGQGTLVTVSS
VL: DIQMTQTPHSLSASLGETVSIECLASEGISNYLAWYQQKPGKSPQLLISYANPLHDGVPSRFSGSGSGTQFSLKIRNMQPEDEGVYYCQQGYKFPYTFGAGTKLELT
MFI [1]: 1480 | percentage of positive cells [1]: 0.39% | MFI [2]: 5020 | percentage of positive cells [2]: 40% | MFI [3]: 980 | percentage of positive cells [3]: 2.5% | MFI [4]: 1310 | percentage of positive cells [4]: 0.58% | MFI [5]: 891 | percentage of positive cells [5]: 4.88% | MFI [6]: 2210 | percentage of positive cells [6]: 12.5%

B2: 5826-13-R3A-D5 (scFv, part only; not given: linker and His-Flag tag, V domains shown, not shown: another chain or arm of the molecule; small tags and cut ends)
VH: EVKLVESGPGLVKPSQSLSLTCSVTGYFITGNYLAWIRKFPGNKMEWIGHIKSSGTTTYNPSLKSRVSITRDTSKNQFFLQLNSVTSEDTATYYCARHGHYVMDVWGQGASVTVSS
VL: DIVLTQSPVLAVSLGQRATISCRASQSVSTSTYNFMHWYQQKPGQQPRLLIYDASHLASSVPARFSGSGSGTDFTLTINPVQADDIATYYCQQSRELPLTFGSGTKLEIK
MFI [7]: 4060 | percentage of positive cells [7]: 10.7% | MFI [8]: 11500 | percentage of positive cells [8]: 62.7% | MFI [9]: 1210 | percentage of positive cells [9]: 5.02% | MFI [10]: 1740 | percentage of positive cells [10]: 2.02% | MFI [11]: 581 | percentage of positive cells [11]: 0% | MFI [12]: 2730 | percentage of positive cells [12]: 16.1%

B3: 5826-13-R4A-H5 (scFv, part only; not given: linker and His-Flag tag, V domains shown, not shown: another chain or arm of the molecule; large carriers; small tags and cut ends)
VH: EVQLQQSGAGLTKPGGSVKISCKVSGYTFTTYDIGWLKQRPGQALEWIGSINPGGGGTGYNEKFKGKATLTVDKSSSTAFMQLSSLTPEDTAVYYCARPLRRVLDYWGQGVLVTVSS
VL: DIQLTQSPSSLPASLGERVTISCRASQGISNKLNWYQQKPDGTIKPLIYYTSNLQSGVPSRFSGSGSGTDYSLTISSLEPEDFAMYYCQQDASFPPTFGGGTKLELK
MFI [7]: 10100 | percentage of positive cells [7]: 66.5% | MFI [8]: 16700 | percentage of positive cells [8]: 79.5% | MFI [9]: 1940 | percentage of positive cells [9]: 8.13% | MFI [10]: 3650 | percentage of positive cells [10]: 11% | MFI [11]: 574 | percentage of positive cells [11]: 0.01% | MFI [12]: 10900 | percentage of positive cells [12]: 61.9%

B4: 5738-10-R3A-D5 (scFv, part only; not given: linker and His-Flag tag, V domains shown, not shown: another chain or arm of the molecule; small tags and cut ends)
VH: EVQLQQSGAELAKPGSSVKISCKASGYTFTSYYISWIKQTTGQGLEYIGYINTGSGGTNYNEKFKGKATLTVDKSSSTAFMQLSSLTPDDSAVYYCARDKWVDWGQGVMVTVSS
VL: DILMTQSPSSMSVSLGDTVTITCRASQDVGIYVNWFQQKPGKPPRRMIYRATNLADGVPSRFSGSRSGSNYSLTIRSLESEDVADYHCLQYDEWPYTFGAGTKLELK
MFI [1]: 1440 | percentage of positive cells [1]: 0.06% | MFI [2]: 3500 | percentage of positive cells [2]: 22.3% | MFI [3]: 632 | percentage of positive cells [3]: 0.07% | MFI [4]: 1250 | percentage of positive cells [4]: 0.08% | MFI [5]: 1040 | percentage of positive cells [5]: 4.81% | MFI [6]: 1380 | percentage of positive cells [6]: 6.57%

B5: 5738-10-R4A-E7 (scFv, V domains shown)
VH: QVQLKQSGVELAKPGSSVKISCKASGYTFTSDSISWIKQTTGQGLEYIGYIHPGSGVTNYNEKFKGKATLTVDKSSSTAFMQLSSLTPDDSAIYYCARYFDYWGQGVMVTVSS
VL: DILMTQSPSSMSVSLGDTVTITCRASQDVGIYVNWFQQIPGKSPRRLIYRATNLADGVPSRFSGSRSGSDYSLTIASLESEDVADYHCLQYDEFPPTFGSGTKLEIK
notes: anti-hDEP1 scFv, rat 10 library, format VH/VL-6xHis-Flag
binding result (hDEP1 Peptide #4): binds

B6: 5738-10-R4A-E9 (scFv, V domains shown)
VH: QVQLKQSGAELAKPGSSVKISCKASGYTFTSYYISWIKQTTGQGLEYIGYIHPGSGVTNYNEKFKGKATLTVDKSSSTAFMQLSSLTPDDSAIYYCARYFDYWGQGVMVTVSS
VL: DILMTQSPSSMSVSQGDTVTITCRASQDVGIYVNWFQQKPGKSPRRMIHRATNLADGVPSRFSGSRSGSDYSLTITSLESEDVADYHCLQYDEYPPTFGSGTNLEIK
notes: as for B5
binding result (hDEP1 Peptide #4): binds

B7: 5738-10-R4A-F12 (scFv, V domains shown)
VH: EVQLQQSGVELAKPGSSVKISCKASGYTFTSDSISWIKQTTGQGLEYIGYIHPGSGVTNYNEKFKGKATLTVDKSSSTAFMQLSSLTPDDSAIYYCARYFDYWGQGVMVTVSS
VL: DILMTQSPSSMSVSLGDTVTITCRASQDVGIYVNWFQQKPGKSPRRMIHRATNLADGVPSRFSGSRSGSDYSLTISSLESEDVADYHCLQYDEYPPTFGSGTKLEIK
notes: as for B5
binding result (hDEP1 Peptide #4): binds

B8: 5738-10-R4A-G4 (scFv, V domains shown)
VH: EVQLQQSGVELAKPGSSVKISCKASGYTFTSDSISWIKQTTGQGLEYIGYIHPGSGVTNYNEKFRGKATLTVDKSSSTAFMQLSSLTPDDSAIYYCARYFDYWGQGVMVTVSS
VL: DIVMTQSPSSMSVSLGDTVTITCRASQDVGIYVNWFQQKPGKSPRRMIYRATNLADGVPSRFSGSRSGSDYSLTIASLESEDVADYHCLQYDEFPPTFGSGTKLEIK
notes: as for B5
binding result (hDEP1 Peptide #4): binds

B9: 5738-10-R4A-G11 (scFv, V domains shown)
VH: QVQLQQPRAELAKPGSSVKISCKASGYTFTNYSISWIKQTTGQGLEYIGYIYPGSGDTNYNEKFKGKATLTVDKSSSTAFMQLSSLTPDDSAVYYCARYFDHWGQGTLVTVSS
VL: DILMTQSPSSMSVSLGDTVTITCRASQDVGIYVNWFQQKPGKSPRRMIYRATTLADGVPSRFSGSRSGSDYSLTISSLESEDVADYHCLQYDEYPPTFGSGTKLEIK
notes: as for B5
binding result (hDEP1 Peptide #4): binds
